Experimental data: patent US20220195070A1

Key:
Anti-hC5 Antibody [1] = assay: sandwich ELISA: SKA antibody coated, Anti-hC5 Antibody in pooled human serum; OD spiked / OD blank
Anti-hC5 Antibody [2] = assay: sandwich ELISA: SKA antibody coated, Anti-hC5 Antibody in pooled human serum, then human C5, mouse anti-hC5, anti-mouse-POD; incubation 8 min; blank OD 0.027
Anti-hC5 Antibody [3] = assay: SPR (Biacore T200), 25 C, pH 7.4; SKA antibody captured by anti-rabbit IgG, Anti-hC5 Antibody injected 0-800 nM
Anti-hC5 Antibody [4] = assay: sandwich ELISA: SKA antibody coated, Anti-hC5 Antibody in pooled human serum, then human C5, mouse anti-hC5, anti-mouse-POD; incubation 11 min; blank OD 0.027
Anti-hC5 Antibody [5] = assay: sandwich ELISA: SKA antibody coated, Anti-hC5 Antibody in pooled human serum, then human C5, mouse anti-hC5, anti-mouse-POD; incubation 19 min; blank OD 0.030
Anti-hC5 Antibody [6] = assay: sandwich ELISA: SKA antibody coated, Anti-hC5 Antibody in pooled human serum, then human C5, mouse anti-hC5, anti-mouse-POD; incubation 14 min; blank OD 0.028
Anti-hC5 Antibody [7] = assay: sandwich ELISA: SKA antibody coated, Anti-hC5 Antibody in pooled human serum, then human C5, mouse anti-hC5, anti-mouse-POD; incubation 18 min; blank OD 0.032
Anti-hC5 Antibody [8] = assay: sandwich ELISA: SKA antibody coated, Anti-hC5 Antibody in pooled human serum, then human C5, mouse anti-hC5, anti-mouse-POD; incubation 16 min; blank OD 0.030
Anti-hC5 Antibody [9] = assay: SPR (Biacore T200), 25 C, pH 7.4; SKA antibody captured by anti-rabbit IgG, Anti-hC5 Antibody injected 0-800 nM; *reliability might be low
Anti-hC5 Antibody [10] = assay: sandwich ELISA: SKA antibody coated, Anti-hC5 Antibody in pooled human serum, then human C5, mouse anti-hC5, anti-mouse-POD; incubation 9 min; blank OD 0.027
Anti-hC5 Antibody [11] = assay: sandwich ELISA: SKA antibody coated, Anti-hC5 Antibody in pooled human serum, then human C5, mouse anti-hC5, anti-mouse-POD; incubation 21 min; blank OD 0.032
Anti-hC5 Antibody [12] = assay: sandwich ELISA: SKA antibody coated, Anti-hC5 Antibody in pooled human serum, then human C5, mouse anti-hC5, anti-mouse-POD; incubation 9 min; blank OD 0.028
Anti-hC5 Antibody [13] = assay: sandwich ELISA: SKA antibody coated, Anti-hC5 Antibody in pooled human serum, then human C5, mouse anti-hC5, anti-mouse-POD; incubation 8 min; blank OD 0.026

Sequence of Anti-hC5 Antibody (constant, as listed by the source limits assumed): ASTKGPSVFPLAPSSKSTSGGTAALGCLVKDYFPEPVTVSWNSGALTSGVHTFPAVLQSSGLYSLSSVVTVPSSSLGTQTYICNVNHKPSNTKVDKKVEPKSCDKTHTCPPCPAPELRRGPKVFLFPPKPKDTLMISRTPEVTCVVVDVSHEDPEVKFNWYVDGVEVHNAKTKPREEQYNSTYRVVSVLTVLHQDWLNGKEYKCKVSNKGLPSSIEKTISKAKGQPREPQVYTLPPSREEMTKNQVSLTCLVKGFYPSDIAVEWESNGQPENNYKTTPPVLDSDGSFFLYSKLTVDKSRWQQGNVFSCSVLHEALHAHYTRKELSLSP

Row | Signal to noise ratio (Anti-hC5 Antibody [1]) | koff (Anti-hC5 Antibody [3]) | kon (Anti-hC5 Antibody [3]) | Binder | other results
1 | 4 | – | – | SKA0171 (antibody, V domains shown) VH: QSLEESGGGLVQPEGSLTLSCTASGFSFSSSYYMCWVRQAPGKGLEWIACIYGGNSVITYYANWAKGRFTISETSSTTVTLQMTSLTAADTATYFCAREVHYDYLYTTYGYANLWGPGTLVTVSS VL: AIKMTQTPASVSAVVGGTVTINCQASETIYSGLAWYQQKPGQPPKLLIYDTANLETGVSSRFKGSGSGTEYTLTISDLECDDAATYFCLYAYYSGGSADNAFGGGTEVVVKG | OD (Anti-hC5 Antibody spiked) (Anti-hC5 Antibody [2]): 0.106 OD
2 | 3.7 | 0.000196 s⁻¹ | 108000 M⁻¹ s⁻¹ | SKA0052 (antibody, V domains shown) VH: QSLEESGGDLVKSGASLTLTCTASGFSFSSSYYMCWVRQAPGKGLEWIACIYTGSNGDTYYASWANGRFTISKASSTTVTLQMTSLTAADTATYFCARYTYDDDGDYTSFNLWGPGTLVTVSS VL: ALVMTQTPSSVSADVGGTVTINCQASQNIYRNLAWYQQKPGQRPKLLIYGASNLEPGVPSRFKGSGSGTEFTLTISDLECDDAATYYCQSVGYSGSVDTFFYAFGGGTEVVVKG | Kd (Anti-hC5 Antibody [3]): 1.81 nM; OD (Anti-hC5 Antibody spiked) (Anti-hC5 Antibody [4]): 0.098 OD
3 | 2.6 | 0.000197 s⁻¹ | 27300 M⁻¹ s⁻¹ | SKA0054 (antibody, V domains shown) VH: QSLEESGGGLVQPEGSLTLTCTASGFSFSSSFWICWVRQAPGKGLEWLACIDAGSSDNTYYANWAKGRFTISKTSSTTVTLQMTSLTDADTATYFCARDRDAAGDAGYGYATSFNLWGPGTLVTVSS VL: AIDMTQTPSSVSAAVGGTVTINCQASESIYSNLAWYQQKPGQRPKLLIYLASTLASGVPSRFKGSGSGTEFTLTISDLECADAATYYCQSVYYDSRGDTFFWAFGGGTEVVVKG | Kd (Anti-hC5 Antibody [3]): 7.22 nM; OD (Anti-hC5 Antibody spiked) (Anti-hC5 Antibody [5]): 0.077 OD
4 | 2.8 | 0.000254 s⁻¹ | 71800 M⁻¹ s⁻¹ | SKA0127 (antibody, V domains shown) VH: QSVEESGGRLVTPGTPLTLTCTVSGIDLSTYAMTWVRQAPGKGLEYIGYINGGGSAYYASWVNGRFTISKTSTTADLKITSPTTEDTATYFCARGPVGSYHRIWGPGTLVTVSS VL: ALVMTQTPSSVSEPVGGTVTINCRASEDIESYLAWYQQKPGQPPKLLIYATSNLETGVPSRFKGSGSGTDYTLTISGVQCADAATYYCQGYYELSSIDNNAFGGGTEVVVKG | Kd (Anti-hC5 Antibody [3]): 3.54 nM; OD (Anti-hC5 Antibody spiked) (Anti-hC5 Antibody [6]): 0.078 OD
5 | 2.5 | – | – | SKA0001 (antibody, V domains shown) VH: QSVEESGGRLVTPGTPLTLTCTVSGFSLSYYAMNWVRQAPGKGLEWIGIIGISGGTYYASWAKGRFTISKSSSTTVDLKMTSPTTEDTATYFCARGGSAWGDLWGQGTLVTVSS VL: DIVMTQTPSSVSAAVGGTVTINCQASQSISRLLAWYQQKPGQPPKVLMHDASDLASGVPSRFKGSGSGTEYTLTISDLECADAATYYCQSYYWGSSGDIGYPFGGGTEVVVKG | OD (Anti-hC5 Antibody spiked) (Anti-hC5 Antibody [7]): 0.079 OD
6 | 2.5 | – | 30900 M⁻¹ s⁻¹ | SKA0016 (antibody, V domains shown) VH: QEQLVESGGGLVQPEGSLTLTCTASGFSFSSSDYMCWVRQAPGKGLEWIACIYIGSNGDTFYASWAKGRFTISKTSSTTVTLQMTSLTAADTATYFCARDSRRADDYGTRLDLWGQGTLVTVSS VL: DIVMTQTPSSVSAAVGGTVTIKCQASQNIYRNLAWYQQKPGQPPKLLIYQASKLESGVPSRFKGSGSGTEFTLTISDLDCDDAASYYCQSISYISSGDTFFWAFGGGTEVVVKG | OD (Anti-hC5 Antibody spiked) (Anti-hC5 Antibody [8]): 0.076 OD; Kd (Anti-hC5 Antibody [9]): 0.0191 nM; koff (Anti-hC5 Antibody [9]): 5.9e-07 s⁻¹
7 | 3 | – | – | SKA0028 (antibody, V domains shown) VH: QSVEESGGRLVTPGTPLTLTCTASGFTISSYHMSWVRQAPGKGLEWIGIIHGSGNMWYASWAKGRFTISRTSTTVDLEITSPTTEDTATYFCARIRFWASSNYYYFYLWGQGTLVTVSS VL: ALVMTQTPASVSEPVGGTVTINCQASQNIYSNLAWYQQKPGQRPRLLIYGASNLESGVPSRFRGSGSGTEFTLTISDLECADAATYYCQSAYWGNNNDGAFGGGTEVVVKG | OD (Anti-hC5 Antibody spiked) (Anti-hC5 Antibody [8]): 0.091 OD
8 | 3.4 | – | – | SKA0027 (antibody, V domains shown) VH: QEQLVESGGGLVQPEGSLTLTCTASGFSFSSSDYMCWVRQAPGKGLEWIGCIYTGSGSTYYASWAKGRFTISKTSSTTVTLQMTSLTAADTATFFCARRGDSYSNYSFKLWGPGTLVTVSS VL: AFELTQTPASVEAAVGGTVTIKCQASQNIYSNLAWYQQKPGQPPKLLIYTASSLASGVSSRFKGSGSGTEFTLTISDLECDDAATYYCQCTYINNGYGNTFGGGTEVVVKG | OD (Anti-hC5 Antibody spiked) (Anti-hC5 Antibody [10]): 0.093 OD
9 | 2.3 | 5.17e-05 s⁻¹ | 88500 M⁻¹ s⁻¹ | SKA0046 (antibody, V domains shown) VH: QEQLVESGGGLVQPEGSLTLTCTASGFSLSSSNYMWWVRQAPGKGLEWIACIHASSSGDTYYANWAKGRFTISKTSSTTVTLQMTSLTAADTATYFCARGGYIYGDGGYNGVAGFSLWGPGTLVTVSS VL: DVVMTQTPASVSEPVGGTVTIKCQASETIGNALAWYQQKPGQRPKLLIYGASNLESGVPSRFKGSGSGTEFTLTISDVQCDDAATYYCQSIYYSSSADTFFFPFGGGTEVVVKG | OD (Anti-hC5 Antibody spiked) (Anti-hC5 Antibody [11]): 0.075 OD; Kd (Anti-hC5 Antibody [9]): 0.585 nM
10 | 3.2 | – | 76900 M⁻¹ s⁻¹ | SKA0009 (antibody, V domains shown) VH: QSVEESGGRLVTPGTSLTLTCTVSGIDLSSYGMGWVRQAPGMGLEYIGIIYAAGRTYYASWVKGRFIISKTSTTVDLEMTSLTTEDTATYFCARHGSWYAGMDLWGPGTLVTVSS VL: AIEMTQTPSPVSAAVGGTVSINCQASEDIENYFAWYQQKPGQPPKLLIYDASELASGVPSRFSGSGSGTDFTLTISGVQCDDAATYYCQHADYAASSENTFGGGTEVVVKG | Kd (Anti-hC5 Antibody [9]): 0.0184 nM; koff (Anti-hC5 Antibody [9]): 1.41e-06 s⁻¹; OD (Anti-hC5 Antibody spiked) (Anti-hC5 Antibody [12]): 0.089 OD
11 | 4.1 | – | – | SKA0117 (antibody, V domains shown) VH: QSLEESGGDLVKPEGSLTLTCTASGFSFSSSHYMCWVRQAPGKGLEWIACIYAGSSDNTYYASWAKGRFTISKTSSTTVTLQMTSLTAADTATYFCARDTYGYVGYASAGGFFNLWGPGTLVTVSS VL: ALVMTQTPASVSAAVGGTVTINCQASHNIYSVLAWYQQKPGQRPRLLIYGASNLESGVPSRFKGSGSGTEYTLTISDLECDDAATYYCQSAYYSSSTGDNAFGGGTEVVVKG | OD (Anti-hC5 Antibody spiked) (Anti-hC5 Antibody [10]): 0.112 OD
12 | 4.2 | – | – | SKA0141 (antibody, V domains shown) VH: QSLEESGGDLVKPGASLTLTCTASGFSFSSSYYMCWVRQAPGKGLEWIACIYAGSSGSTYYASWAKGRFTISKTSSTTVTLQMTSLTAADTATYFCARDGDENMLVGGYFNLWGPGTLVTVSS VL: ALVMTQTPSSVSAAVGGTVTINCQASHNIYSNLAWYQQKPGQRPKLLIYGASNLESGVPSRFKGSGSGTEYTLTISDLECDDAATYYCQSAYYSSNAGYNAFGGGTEVVVKG | OD (Anti-hC5 Antibody spiked) (Anti-hC5 Antibody [13]): 0.109 OD
